19 molecules from patent US20250326839A1 (VIGIL NEUROSCIENCE, published 2025) can be followed below.

Assay [1] has as its target T1, human TREM2 (human, UniProt Q9NZC2 19-174, limits assumed).
T1 construct: also called triggering receptor expressed on myeloid cells 2
T1 sequence: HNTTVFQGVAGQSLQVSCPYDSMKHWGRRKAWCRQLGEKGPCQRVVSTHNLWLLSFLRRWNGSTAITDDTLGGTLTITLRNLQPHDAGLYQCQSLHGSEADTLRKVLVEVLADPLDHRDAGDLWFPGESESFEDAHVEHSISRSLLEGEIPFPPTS
Nature of the assay: 2nd screen, 100 nM.

Assay [2] deals with T1, human TREM2. Nature of the assay: 1st screen, 110 nM Ab.

B1: V43 (antibody, V domains shown)
VH: EVQLVQSGAEVKKPGESLKISCKGSGYSFTSYWIAWVRQMPGKGLEWMGIIYPGDSGTRYSPSFQGQVTISADKSISTAYLQWSSLKASDTAMYFCARQRTFYYDSSDYFDYWGQGTLVTVSS
VL: DIQMTQSPSSVSASVGDRVTITCRASQGISSWLAWYQQKPGKAPKLLIYAASSLQNGVPSRFSGSGSGTDFTLTISSLQPEDFATYFCQQADSFPRTFGQGTKLEIK
notes: also called 6E7 variant V43
B1: the “Binding Signal” value is 0.33 fold over 6E7 parental antibody in assay [1] and 0.2 fold over 6E7 parental antibody in assay [2].

B2: V71 (antibody, V domains shown)
VH: EVQLVQSGAEVKKPGESLKISCKGSGYSFTSYWIAWVRQMPGKGLEWMGIIYPGDSDTRYSPSFQGQVTISADKSISTAYLQWSSLKASDTAMYFCARQRTFYYDSSDYFDYWGQGTLVTVSS
VL: DIQMTQSPSSVSASVGDRVTITCRASQGISSWLAWYQQKPGKAPKLLIYAASSLQNGVPSRFSGSGSGTDFTLTISSLQPEDFATYFCQQADSEPRTFGQGTKLEIK
notes: also called 6E7 variant V71
B2: the “Binding Signal” value in assay [1] was 0.48 fold over 6E7 parental antibody; in assay [2] it was 0.37 fold over 6E7 parental antibody.

B3: V54 (antibody, V domains shown)
VH: EVQLVQSGAEVKKPGESLKISCKGSGYSFTSQWIAWVRQMPGKGLEWMGIIYPGDSDTRYSPSFQGQVTISADKSISTAYLQWSSLKASDTAMYFCARQRTFYYDSSDYFDYWGQGTLVTVSS
VL: DIQMTQSPSSVSASVGDRVTITCRASQGISSWLAWYQQKPGKAPKLLIYAASSLQNGVPSRFSGSGSGTDFTLTISSLQPEDFATYFCQQADSFPRTFGQGTKLEIK
notes: also called 6E7 variant V54
Consider B3, for which the results for the “Binding Signal” value in assay [1] and in assay [2] were 0.54 fold over 6E7 parental antibody and 0.55 fold over 6E7 parental antibody, respectively.

B4: V57 (antibody, V domains shown)
VH: EVQLVQSGAEVKKPGESLKISCKGSGYSFTSYWIAWVRQMPGKGLEWMGIIYPGDSDTRYSPSFQGQVTISADKSISTAYLQWSSLKASDTAMYFCARQRTFYYDSSDYFDYWGQGTLVTVSS
VL: DIQMTQSPSSVSASVGDRVTITCAASQGISSWLAWYQQKPGKAPKLLIYAASSLQNGVPSRFSGSGSGTDFTLTISSLQPEDFATYFCQQADSFPRTFGQGTKLEIK
notes: also called 6E7 variant V57; LV-203/HV-15
Turning to B4, the “Binding Signal” value was 0.85 fold over 6E7 parental antibody in assay [1] and 0.84 fold over 6E7 parental antibody in assay [2].

B5: V78 (antibody, V domains shown)
VH: EVQLVQSGAEVKKPGESLKISCKGSGYRFTSYWIAWVRQMPGKGLEWMGIIYPGDSDTRYSPSFQGQVTISADKSISTAYLQWSSLKASDTAMYFCARQRTFYYDSSDYFDYWGQGTLVTVSS
VL: DIQMTQSPSSVSASVGDRVTITCRASQGISSWLAWYQQKPGKAPKLLIYAASSLQNGVPSRFSGSGSGTDFTLTISSLQPEDFATYFCQQADSFPRTFGQGTKLEIK
notes: also called 6E7 variant V78
Take B5: the “Binding Signal” value is 1.11 fold over 6E7 parental antibody in assay [1] and 0.86 fold over 6E7 parental antibody in assay [2].

B6: V58 (antibody, V domains shown)
VH: EVQLVQSGAEVKKPGESLKISCKGSGYSFTSYWIAWVRQMPGKGLEWMGIIYPGDSDTRYSPSFQGQVTISADKSISTAYLQWSSLKASDTAMYFCARQRTFYYDSSDYFDYWGQGTLVTVSS
VL: DIQMTQSPSSVSASVGDRVTITCRASQGISSWLAWYQQKPGKAPKLLIYKASSLQNGVPSRFSGSGSGTDFTLTISSLQPEDFATYFCQQADSFPRTFGQGTKLEIK
notes: also called 6E7 variant V58
On to B6, for which the entries for the “Binding Signal” value in assay [1] and in assay [2] were 0.68 fold over 6E7 parental antibody and 0.28 fold over 6E7 parental antibody, respectively.

B7: V45 (antibody, V domains shown)
VH: EVQLVQSGAEVKKPGESLKISCKGSGYSFTSYWIAWVRQMPGKGLEWMGIIYPGDSDTRYSPSFQGQVTISADKSISTAYLQWSSLKASDTAMYFCARQRTFYYDSSDYFDYWGQGTLVTVSS
VL: DIQMTQSPSSVSASVGDRVTITCRASQGISSFLAWYQQKPGKAPKLLIYAASSLQNGVPSRFSGSGSGTDFTLTISSLQPEDFATYFCQQADSFPRTFGQGTKLEIK
notes: also called 6E7 variant V45
Consider B7, for which the “Binding Signal” value was 0.53 fold over 6E7 parental antibody in assay [1] and 0.43 fold over 6E7 parental antibody in assay [2].

B8: V47 (antibody, V domains shown)
VH: EVQLVQSGAEVKKPGESLKISCKGSGYSFTSYWIAWVRQMPGKGLEWMGIIYPGDSDTRYSPSFQGQVTISADKSISTAYLQWSSLKASDTAMYFCARQRTFYYDSSDYFDYWGQGTLVTVSS
VL: DIQMTQSPSSVSASVGDRVTITCRASQGISSWLAWYQQKPGKAPKLLIYAASSLQNGVPSRFSGSGSGTDFTLTISSLQPEDFATYFCQQADSFPMTFGQGTKLEIK
notes: also called 6E7 variant V47
As for B8, the “Binding Signal” value in assay [1] is 0.47 fold over 6E7 parental antibody; in assay [2] it was 0.42 fold over 6E7 parental antibody.

B9: V79 (antibody, V domains shown)
VH: EVQLVQSGAEVKKPGESLKISCKGSGYSFTSYWIAWVRQMPGKGLEWMGIIYPGDSDTNYSPSFQGQVTISADKSISTAYLQWSSLKASDTAMYFCARQRTFYYDSSDYFDYWGQGTLVTVSS
VL: DIQMTQSPSSVSASVGDRVTITCRASQGISSWLAWYQQKPGKAPKLLIYAASSLQNGVPSRFSGSGSGTDFTLTISSLQPEDFATYFCQQADSFPRTFGQGTKLEIK
notes: also called 6E7 variant V79
On to B9, for which the entries for the “Binding Signal” value in assay [1] and in assay [2] were 0.52 fold over 6E7 parental antibody and 0.7 fold over 6E7 parental antibody, respectively.

B10: V69 (antibody, V domains shown)
VH: EVQLVQSGAEVKKPGESLKISCKGSGYSFTSYWIAWVRQMPGKGLEWMGIIYPGDSDTRYSPSFQGQVTISADKSISTAYLQWSSLKASDTAMYFCARQRTFYYDSSDYFDYWGQGTLVTVSS
VL: DIQMTQSPSSVSASVGDRVTITCRASQGISSYLAWYQQKPGKAPKLLIYAASSLQNGVPSRFSGSGSGTDFTLTISSLQPEDFATYFCQQADSFPRTFGQGTKLEIK
notes: also called 6E7 variant V69
Consider B10, for which the “Binding Signal” value in assay [1] is 0.4 fold over 6E7 parental antibody; in assay [2] it was 0.41 fold over 6E7 parental antibody.

B11: V70 (antibody, V domains shown)
VH: EVQLVQSGAEVKKPGESLKISCKGSGYSFTSYWIAWVRQMPGKGLEWMGIIYPGDSDTRYSPSFQGQVTISADKSISTAYLQWSSLKASDTAMYFCARQRTFYYDSSDYFDYWGQGTLVTVSS
VL: DIQMTQSPSSVSASVGDRVTITCRASQGISSWLAWYQQKPGKAPKLLIYAAGSLQNGVPSRFSGSGSGTDFTLTISSLQPEDFATYFCQQADSFPRTFGQGTKLEIK
notes: also called 6E7 variant V70; LV-204/HV-15
Turning to B11, the “Binding Signal” value was 0.84 fold over 6E7 parental antibody in assay [1] and 0.79 fold over 6E7 parental antibody in assay [2].

B12: V68 (antibody, V domains shown)
VH: EVQLVQSGAEVKKPGESLKISCKGSGYSFTSYWIAWVRQMPGKGLEWMGIIYPGDSDTRYSPSFQGQVTISADKSISTAYLQWSSLKASDTAMYFCARQRTFRYDSSDYFDYWGQGTLVTVSS
VL: DIQMTQSPSSVSASVGDRVTITCRASQGISSWLAWYQQKPGKAPKLLIYAASSLQNGVPSRFSGSGSGTDFTLTISSLQPEDFATYFCQQADSFPRTFGQGTKLEIK
notes: also called 6E7 variant V68
Regarding B12, the “Binding Signal” value in assay [1] is 0.43 fold over 6E7 parental antibody; in assay [2], 0.44 fold over 6E7 parental antibody.

B13: V66 (antibody, V domains shown)
VH: EVQLVQSGAEVKKPGESLKISCKGSGTSFTSYWIAWVRQMPGKGLEWMGIIYPGDSDTRYSPSFQGQVTISADKSISTAYLQWSSLKASDTAMYFCARQRTFYYDSSDYFDYWGQGTLVTVSS
VL: DIQMTQSPSSVSASVGDRVTITCRASQGISSWLAWYQQKPGKAPKLLIYAASSLQNGVPSRFSGSGSGTDFTLTISSLQPEDFATYFCQQADSFPRTFGQGTKLEIK
notes: also called 6E7 variant V66
In the case of B13, the “Binding Signal” value in assay [1] is 0.74 fold over 6E7 parental antibody; in assay [2] it was 0.25 fold over 6E7 parental antibody.

B14: V56 (antibody, V domains shown)
VH: EVQLVQSGAEVKKPGESLKISCKGSGYSFTSYWIAWVRQMPGKGLEWMGIIYPGDSDTRYQPSFQGQVTISADKSISTAYLQWSSLKASDTAMYFCARQRTFYYDSSDYFDYWGQGTLVTVSS
VL: DIQMTQSPSSVSASVGDRVTITCRASQGISSWLAWYQQKPGKAPKLLIYAASSLQNGVPSRFSGSGSGTDFTLTISSLQPEDFATYFCQQADSFPRTFGQGTKLEIK
notes: also called 6E7 variant V56
As for B14, the “Binding Signal” value in assay [1] is 0.59 fold over 6E7 parental antibody; in assay [2], 0.23 fold over 6E7 parental antibody.

B15: V67 (antibody, V domains shown)
VH: EVQLVQSGAEVKKPGESLKISCKGSGYSFTSYWIAWVRQMPGKGLEWMGMIYPGDSDTRYSPSFQGQVTISADKSISTAYLQWSSLKASDTAMYFCARQRTFYYDSSDYFDYWGQGTLVTVSS
VL: DIQMTQSPSSVSASVGDRVTITCRASQGISSWLAWYQQKPGKAPKLLIYAASSLQNGVPSRFSGSGSGTDFTLTISSLQPEDFATYFCQQADSFPRTFGQGTKLEIK
notes: also called 6E7 variant V67
On to B15, for which the “Binding Signal” value in assay [1] was 0.84 fold over 6E7 parental antibody; in assay [2], 0.8 fold over 6E7 parental antibody.

B16: V55 (antibody, V domains shown)
VH: EVQLVQSGAEVKKPGESLKISCKGSGYSFTSYWIAWVRQMPGKGLEWMGIIYPGDSDTIYSPSHQGQVTISADKSISTAYLQWSSLKASDTAMYFCARQRTFYYDSSDYFDYWGQGTLVTVSS
VL: DIQMTQSPSSVSASVGDRVTITCRASQGISSWLAWYQQKPGKAPKLLIYAASSLQNGVPSRFSGSGSGTDFTLTISSLQPEDFATYFCQQADSFPRTFGQGTKLEIK
notes: also called 6E7 variant V55
As to B16, the “Binding Signal” value in assay [1] was 0.66 fold over 6E7 parental antibody; in assay [2] it was 0.24 fold over 6E7 parental antibody.

B17: V46 (antibody, V domains shown)
VH: EVQLVQSGAEVKKPGESLKISCKGSGYSFTSYWIAWVRQMPGKGLEWMGIIYPGDSDTRYSPSFQGQVTISADKSISTAYLQWSSLKASDTAMYFCARQRTFYYDSSDYFDYWGQGTLVTVSS
VL: DIQMTQSPSSVSASVGDRVTITCRASQGISSWLAWYQQKPGKAPKLLIYAASTLQNGVPSRFSGSGSGTDFTLTISSLQPEDFATYFCQQADSFPRTFGQGTKLEIK
notes: also called 6E7 variant V46
For B17, the entries for the “Binding Signal” value in assay [1] and in assay [2] were 0.96 fold over 6E7 parental antibody and 0.83 fold over 6E7 parental antibody, respectively.

B18: V59 (antibody, V domains shown)
VH: EVQLVQSGAEVKKPGESLKISCKGSGYSFTSYWIAWVRQMPGKGLEWMGIIYPGDSDTRYSPSFQGQVTISADKSISTAYLQWSSLKASDTAMYFCARQRTFYYDSSDYFDYWGQGTLVTVSS
VL: DIQMTQSPSSVSASVGDRVTITCRASQGISSWLAWYQQKPGKAPKLLIYAASSLQNGVPSRFSGSGSGTDFTLTISSLQPEDFATYFCMQADSFPRTFGQGTKLEIK
notes: also called 6E7 variant V59
Take B18: the figures for the “Binding Signal” value in assay [1] and in assay [2] were 0.6 fold over 6E7 parental antibody and 0.19 fold over 6E7 parental antibody, respectively.

B19: V44 (antibody, V domains shown)
VH: EVQLVQSGAEVKKPGESLKISCKGSGYSFTSYWIAWVRQMPGKGLEWMGIIYPSDSDTRYSPSFQGQVTISADKSISTAYLQWSSLKASDTAMYFCARQRTFYYDSSDYFDYWGQGTLVTVSS
VL: DIQMTQSPSSVSASVGDRVTITCRASQGISSWLAWYQQKPGKAPKLLIYAASSLQNGVPSRFSGSGSGTDFTLTISSLQPEDFATYFCQQADSFPRTFGQGTKLEIK
notes: also called 6E7 variant V44; LV-16/HV-204
Take B19: the results for the “Binding Signal” value in assay [1] and in assay [2] were 0.52 fold over 6E7 parental antibody and 0.65 fold over 6E7 parental antibody, respectively.
